Measured values published in the supplement of paper PMC5998384.

What was measured:
HeLa Kyoto [1] = experiment: solubility in G1/S (NP-40 vs SDS abundance) (log2 ratio); higher = more soluble; conditions: cell cycle stage: G1/S
HeLa Kyoto [2] = experiment: solubility change mitosis vs G1/S (difference of NP-40 vs SDS log2 ratios) (log2 ratio difference); higher = more soluble in mitosis
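Throughout, for solubility change mitosis vs G1/S (difference of NP-40 vs SDS log2 ratios): synchronized HeLa Kyoto cells (double thymidine block for G1/S, nocodazole release for mitosis), protein amounts in NP-40 versus SDS lysates quantified by mass spectrometry, three biological replicates.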
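Throughout, for solubility in G1/S (NP-40 vs SDS abundance): HeLa Kyoto cells arrested at G1/S by double thymidine block, proteins quantified by TMT10plex mass spectrometry in mild NP-40 versus SDS extracts, three biological replicates.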

Sequence of MAFK (chain, as listed by the source): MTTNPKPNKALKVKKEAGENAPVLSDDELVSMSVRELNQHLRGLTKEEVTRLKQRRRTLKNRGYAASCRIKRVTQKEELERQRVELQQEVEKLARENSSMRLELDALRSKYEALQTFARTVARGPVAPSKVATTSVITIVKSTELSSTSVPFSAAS

Substance: MAEAVERTDELVREYLLFRGFTHTLRQLDAEIKADKEKGFRVDKIVDQLQQLMQVYDLAALRDYWSYLERRLFSRLEDIYRPTIHKLKTSLFRFYLVYTIQTNRNDKAQEFFAKQATELQNQAEWKDWFVLPFLPSPDTNPTFATYFSRQWADTFIVSLHNFLSVLFQCMPVPVILNFDAECQRTNQVQEENEVLRQKLFALQAEIHRLKKEEQQPEEEEALVQHKLPPYVSNMDRLGDSELAMVCSQRNASLSQSPRVGFLSSLLPQSKKSPSRLSPAQGPPQPQSSAKKESFGGQGTKGKDPTSGAKDGKSLLSGLATGESGWSQHRQRRLQDHGKERKELFSTTTSQCAEKKPEASGPEAEPCPELHTEPVEPLTRASSAGPEGGGVRPEQPFIVLGQEEYGEHHSSIMHCRVDCSGRRVASLDVDGVIKVWSFNPIMQTKASSISKSPLLSLEWATKRDRLLLLGSGVGTVRLYDTEAKKNLCEININDNMPRILSLACSPNGASFVCSAAAPSLTSQVDFSAPDIGSKGMNQVPGRLLLWDTKTMKQQLQFSLDPEPIAINCTAFNHNGNLLVTGAADGVIRLFDMQQHECAMSWRAHYGEVYSVEFSYDENTVYSIGEDGKFIQWNIHKSGLKVSEYSLPSDATGPFVLSGYSGYKQVQVPRGRLFAFDSEGNYMLTCSATGGVIYKLGGDEKVLESCLSLGGHRAPVVTVDWSTAMDCGTCLTASMDGKIKLTTLLAHKA [WDR91]
- solubility in G1/S (log2) (HeLa Kyoto [1]): -0.122
- solubility change mitosis (log2) (HeLa Kyoto [2]): 0.0607

Substance: MAEEVSTLMKATVLMRQPGRVQEIVGALRKGGGDRLQVISDFDMTLSRFAYNGKRCPSSYNILDNSKIISEECRKELTALLHHYYPIEIDPHRTVKEKLPHMVEWWTKAHNLLCQQKIQKFQIAQVVRESNAMLREGYKTFFNTLYHNNIPLFIFSAGIGDILEEIIRQMKVFHPNIHIVSNYMDFNEDGFLQGFKGQLIHTYNKNSSACENSGYFQQLEGKTNVILLGDSIGDLTMADGVPGVQNILKIGFLNDKVEERRERYMDSYDIVLEKDETLDVVNGLLQHILCQGVQLEMQGP [NT5C3B]
- solubility in G1/S (log2) (HeLa Kyoto [1]): 0.00588
- solubility change mitosis (log2) (HeLa Kyoto [2]): -0.136

Substance: MAEIIQERIEDRLPELEQLERIGLFSHAEIKAIIKKASDLEYKIQRRTLFKEDFINYVQYEINLLELIQRRRTRIGYSFKKDEIENSIVHRVQGVFQRASAKWKDDVQLWLSYVAFCKKWATKTRLSKVFSAMLAIHSNKPALWIMAAKWEMEDRLSSESARQLFLRALRFHPECPKLYKEYFRMELMHAEKLRKEKEEFEKASMDVENPDYSEEILKGELAWIIYKNSVSIIKGAEFHVSLLSIAQLFDFAKDLQKEIYDDLQALHTDDPLTWDYVARRELEIESQTEEQPTTKQAKAVEVGRKEERCCAVYEEAVKTLPTEAMWKCYITFCLERFTKKSNSGFLRGKRLERTMTVFRKAHELKLLSECQYKQLSVSLLCYNFLREALEVAVAGTELFRDSGTMWQLKLQVLIESKSPDIAMLFEEAFVHLKPQVCLPLWISWAEWSEGAKSQEDTEAVFKKALLAVIGADSVTLKNKYLDWAYRSGGYKKARAVFKSLQESRPFSVDFFRKMIQFEKEQESCNMANIREYYERALREFGSADSDLWMDYMKEELNHPLGRPENCGQIYWRAMKMLQGESAEAFVAKHAMHQTGHL [UTP6]
- solubility in G1/S (log2) (HeLa Kyoto [1]): -2.05
- solubility change mitosis (log2) (HeLa Kyoto [2]): 0.707

Substance: MAELRQVPGGRETPQGELRPEVVEDEVPRSPVAEEPGGGGSSSSEAKLSPREEEELDPRIQEELEHLNQASEEINQVELQLDEARTTYRRILQESARKLNTQGSHLGSCIEKARPYYEARRLAKEAQQETQKAALRYERAVSMHNAAREMVFVAEQGVMADKNRLDPTWQEMLNHATCKVNEAEEERLRGEREHQRVTRLCQQAEARVQALQKTLRRAIGKSRPYFELKAQFSQILEEHKAKVTELEQQVAQAKTRYSVALRNLEQISEQIHARRRGGLPPHPLGPRRSSPVGAEAGPEDMEDGDSGIEGAEGAGLEEGSSLGPGPAPDTDTLSLLSLRTVASDLQKCDSVEHLRGLSDHVSLDGQELGTRSGGRRGSDGGARGGRHQRSVSL [SH3BP5L]
- solubility in G1/S (log2) (HeLa Kyoto [1]): 0.128
- solubility change mitosis (log2) (HeLa Kyoto [2]): -0.0461

Substance: MAELYVKPGNKERGWNDPPQFSYGLQTQAGGPRRSLLTKRVAAPQDGSPRVPASETSPGPPPMGPPPPSSKAPRSPPVGSGPASGVEPTSFPVESEAVMEDVLRPLEQALEDCRGHTRKQVCDDISRRLALLQEQWAGGKLSIPVKKRMALLVQELSSHRWDAADDIHRSLMVDHVTEVSQWMVGVKRLIAEKRSLFSEEAANEEKSAATAEKNHTIPGFQQAS [SRA1]
- solubility in G1/S (log2) (HeLa Kyoto [1]): 0.0612
- solubility change mitosis (log2) (HeLa Kyoto [2]): 0.9

Substance: MAEPVQEELSVLAAIFCRPHEWEVLSRSETDGTVFRIHTKAEGFMDVDIPLELVFHLPVNYPSCLPGISINSEQLTRAQCVTVKENLLEQAESLLSEPMVHELVLWIQQNLRHILSQPETGSGSEKCTFSTSTTMDDGLWITLLHLDHMRAKTKYVKIVEKWASDLRLTGRLMFMGKIILILLQGDRNNLKEYLILQKTSKVDVDSSGKKCKEKMISVLFETKVQTEHKRFLAFEVKEYSALDELQKEFETAGLKKLFSEFVLALVK [RWDD3]
- solubility in G1/S (log2) (HeLa Kyoto [1]): 0.101
- solubility change mitosis (log2) (HeLa Kyoto [2]): -0.0953

Substance: MAFGKSHRDPYATSVGHLIEKATFAGVQTEDWGQFMHICDIINTTQDGPKDAVKALKKRISKNYNHKEIQLTLSLIDMCVQNCGPSFQSLIVKKEFVKENLVKLLNPRYNLPLDIQNRILNFIKTWSQGFPGGVDVSEVKEVYLDLVKKGVQFPPSEAEAETARQETAQISSNPPTSVPTAPALSSVIAPKNSTVTLVPEQIGKLHSELDMVKMNVRVMSAILMENTPGSENHEDIELLQKLYKTGREMQERIMDLLVVVENEDVTVELIQVNEDLNNAILGYERFTRNQQRILEQNKNQKEATNTTSEPSAPSQDLLDLSPSPRMPRATLGELNTMNNQLSGLNFSLPSSDVTNNLKPSLHPQMNLLALENTEIPPFAQRTSQNLTSSHAYDNFLEHSNSVFLQPVSLQTIAAAPSNQSLPPLPSNHPAMTKSDLQPPNYYEVMEFDPLAPAVTTEAIYEEIDAHQHKGAQNDGD [TOM1L1]
- solubility in G1/S (log2) (HeLa Kyoto [1]): 0.297
- solubility change mitosis (log2) (HeLa Kyoto [2]): -0.0535

Substance: MAFK
- solubility in G1/S (log2) (HeLa Kyoto [1]): 0.335
- solubility change mitosis (log2) (HeLa Kyoto [2]): 0.364

Substance: MAGGRCGPQLTALLAAWIAAVAATAGPEEAALPPEQSRVQPMTASNWTLVMEGEWMLKFYAPWCPSCQQTDSEWEAFAKNGEILQISVGKVDVIQEPGLSGRFFVTTLPAFFHAKDGIFRRYRGPGIFEDLQNYILEKKWQSVEPLTGWKSPASLTMSGMAGLFSISGKIWHLHNYFTVTLGIPAWCSYVFFVIATLVFGLFMGLVLVVISECFYVPLPRHLSERSEQNRRSEEAHRAEQLQDAEEEKDDSNEEENKDSLVDDEEEKEDLGDEDEAEEEEEEDNLAAGVDEERSEANDQGPPGEDGVTREEVEPEEAEEGISEQPCPADTEVVEDSLRQRKSQHADKGL [TMX4]
- solubility in G1/S (log2) (HeLa Kyoto [1]): 0.144
- solubility change mitosis (log2) (HeLa Kyoto [2]): -0.172

Substance: MAGLGLGSAVPVWLAEDDLGCIICQGLLDWPATLPCGHSFCRHCLEALWGARDARRWACPTCRQGAAQQPHLRKNTLLQDLADKYRRAAREIQAGSDPAHCPCPGSSSLSSAAARPRRRPELQRVAVEKSITEVAQELTELVEHLVDIVRSLQNQRPLSESGPDNELSILGKAFSSGVDLSMASPKLVTSDTAAGKIRDILHDLEEIQEKLQESVTWKEAPEAQMQGELLEAPSSSSCPLPDQSHPALRRASRFAQWAIHPTFNLKSLSCSLEVSKDSRTVTVSHRPQPYRWSCERFSTSQVLCSQALSSGKHYWEVDTRNCSHWAVGVASWEMSRDQVLGRTMDSCCVEWKGTSQLSAWHMVKETVLGSDRPGVVGIWLNLEEGKLAFYSVDNQEKLLYECTISASSPLYPAFWLYGLHPGNYLIIKQVKV [RNF135]
- solubility in G1/S (log2) (HeLa Kyoto [1]): 0.0392
- solubility change mitosis (log2) (HeLa Kyoto [2]): -0.147

Substance: MAGLTLFVGRLPPSARSEQLEELFSQVGPVKQCFVVTEKGSKACRGFGYVTFSMLEDVQRALKEITTFEGCKINVTVAKKKLRNKTKEKGKNENSECPKKEPKAKKAKVADKKARLIIRNLSFKCSEDDLKTVFAQFGAVLEVNIPRKPDGKMRGFGFVQFKNLLEAGKALKGMNMKEIKGRTVAVDWAVAKDKYKDTQSVSAIGEEKSHESKHQESVKKKGREEEDMEEEENDDDDDDDDEEDGVFDDEDEEEENIESKVTKPVQIQKRAVKRPAPAKSSDHSEEDSDLEESDSIDDGEELAQSDTSTEEQEDKAVQVSNKKKRKLPSDVNEGKTVFIRNLSFDSEEEELGELLQQFGELKYVRIVLHPDTEHSKGCAFAQFMTQEAAQKCLLAASPENEAGGLKLDGRQLKVDLAVTRDEAAKLQTTKVKKPTGTRNLYLAREGLIRAGTKAAEGVSAADMAKRERFELLKHQKLKDQNIFVSRTRLCLHNLPKAVDDKQLRKLLLSATSGEKGVRIKECRVMRDLKGVHGNMKGQSLGYAFAEFQEHEHALKALRLINNNPEIFGPLKRPIVEFSLEDRRKLKMKELRIQRSLQKMRSKPATGEPQKGQPEPAKDQQQKAAQHHTEEQSKVPPEQKRKAGSTSWTGFQTKAEVEQVELPDGKKRRKVLALPSHRGPKIRLRDKGKVKPVHPKKPKPQINQWKQEKQQLSSEQVSRKKAKGNKTETRFNQLVEQYKQKLLGPSKGAPLAKRSKWFDS [RBM28]
- solubility in G1/S (log2) (HeLa Kyoto [1]): -2.35
- solubility change mitosis (log2) (HeLa Kyoto [2]): 1.56

Substance: MAGNFWQSSHYLQWILDKQDLLKERQKDLKFLSEEEYWKLQIFFTNVIQALGEHLKLRQQVIATATVYFKRFYARYSLKSIDPVLMAPTCVFLASKVEEFGVVSNTRLIAAATSVLKTRFSYAFPKEFPYRMNHILECEFYLLELMDCCLIVYHPYRPLLQYVQDMGQEDMLLPLAWRIVNDTYRTDLCLLYPPFMIALACLHVACVVQQKDARQWFAELSVDMEKILEIIRVILKLYEQWKNFDERKEMATILSKMPKPKPPPNSEGEQGPNGSQNSSYSQS [CCNC]
- solubility in G1/S (log2) (HeLa Kyoto [1]): -0.272
- solubility change mitosis (log2) (HeLa Kyoto [2]): -0.0468

Substance: MAGPPALPPPETAAAATTAAAASSSAASPHYQEWILDTIDSLRSRKARPDLERICRMVRRRHGPEPERTRAELEKLIQQRAVLRVSYKGSISYRNAARVQPPRRGATPPAPPRAPRGAPAAAAAAAPPPTPAPPPPPAPVAAAAPARAPRAAAAAATAPPSPGPAQPGPRAQRAAPLAAPPPAPAAPPAVAPPAGPRRAPPPAVAAREPPLPPPPQPPAPPQQQQPPPPQPQPPPEGGAVRAGGAARPVSLREVVRYLGGSGGAGGRLTRGRVQGLLEEEAAARGRLERTRLGALALPRGDRPGRAPPAASARPSRSKRGGEERVLEKEEEEDDDEDEDEEDDVSEGSEVPESDRPAGAQHHQLNGERGPQSAKERVKEWTPCGPHQGQDEGRGPAPGSGTRQVFSMAAMNKEGGTASVATGPDSPSPVPLPPGKPALPGADGTPFGCPPGRKEKPSDPVEWTVMDVVEYFTEAGFPEQATAFQEQEIDGKSLLLMQRTDVLTGLSIRLGPALKIYEHHIKVLQQGHFEDDDPDGFLG [SAMD1]
- solubility in G1/S (log2) (HeLa Kyoto [1]): -0.144
- solubility change mitosis (log2) (HeLa Kyoto [2]): 0.323

Substance: MAGRGSLVSWRAFHGCDSAEELPRVSPRFLRAWHPPPVSARMPTRRWAPGTQCITKCEHTRPKPGELAFRKGDVVTILEACENKSWYRVKHHTSGQEGLLAAGALREREALSADPKLSLMPWFHGKISGQEAVQQLQPPEDGLFLVRESARHPGDYVLCVSFGRDVIHYRVLHRDGHLTIDEAVFFCNLMDMVEHYSKDKGAICTKLVRPKRKHGTKSAEEELARAGWLLNLQHLTLGAQIGEGEFGAVLQGEYLGQKVAVKNIKCDVTAQAFLDETAVMTKMQHENLVRLLGVILHQGLYIVMEHVSKGNLVNFLRTRGRALVNTAQLLQFSLHVAEGMEYLESKKLVHRDLAARNILVSEDLVAKVSDFGLAKAERKGLDSSRLPVKWTAPEALKHGKFTSKSDVWSFGVLLWEVFSYGRAPYPKMSLKEVSEAVEKGYRMEPPEGCPGPVHVLMSSCWEAEPARRPPFRKLAEKLARELRSAGAPASVSGQDADGSTSPRSQEP [MATK]
- solubility in G1/S (log2) (HeLa Kyoto [1]): -0.238
- solubility change mitosis (log2) (HeLa Kyoto [2]): 0.257
